Common to all, as to experiment: fluorescence polarization
Conditions in all cases: 50 mM Tris-HCl pH 8.0, 50 mM KCl, 1 mM EDTA; 50 nM labeled oligonucleotide; temperature not stated

One data set concerns the target SAMHD1 HD domain WT (UniProt Q9Y3Z3).
Data set [1] has as its target SAMHD1 HD domain R366H R366H (UniProt Q9Y3Z3).
Data set [2] concerns the target SAMHD1 HD domain R366C R366C (UniProt Q9Y3Z3).

Broadly, the Kd is the equilibrium constant for the complex coming apart. A higher Kd goes with weaker binding.

SAMHD1 HD domain R366C R366C, sequence (Q9Y3Z3 114-626 R366C): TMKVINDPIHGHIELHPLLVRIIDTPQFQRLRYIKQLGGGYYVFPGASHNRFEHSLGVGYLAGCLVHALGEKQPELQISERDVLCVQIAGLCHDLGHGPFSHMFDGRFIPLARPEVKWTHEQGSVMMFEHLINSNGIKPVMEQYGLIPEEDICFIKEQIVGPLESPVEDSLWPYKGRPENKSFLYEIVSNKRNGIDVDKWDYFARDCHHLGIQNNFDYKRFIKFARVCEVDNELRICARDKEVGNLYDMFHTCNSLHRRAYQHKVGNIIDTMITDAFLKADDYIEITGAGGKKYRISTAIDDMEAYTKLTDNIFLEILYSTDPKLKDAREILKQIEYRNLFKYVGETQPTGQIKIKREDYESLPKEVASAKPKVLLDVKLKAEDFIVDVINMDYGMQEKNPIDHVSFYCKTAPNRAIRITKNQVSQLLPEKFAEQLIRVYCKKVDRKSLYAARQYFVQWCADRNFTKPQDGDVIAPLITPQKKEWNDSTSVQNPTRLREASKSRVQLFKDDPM
SAMHD1 HD domain R366H R366H, sequence (Q9Y3Z3 114-626 R366H): as the sequence (Q9Y3Z3 114-626 R366C) above, with C253H counted along it
SAMHD1 HD domain WT, sequence (Q9Y3Z3 114-626): as the sequence (Q9Y3Z3 114-626 R366C) above, with C253R counted along it

With 6FAM-ssRNA40, the Kd is 0.885 µM with SAMHD1 HD domain WT, 2.48 µM in data set [1] and 2.25 µM in data set [2].
For the substance 6FAM-ssDNA57, the Kd with SAMHD1 HD domain WT amounted to 0.387 µM; in data set [1] it was 2.96 µM; in data set [2] it was 3.83 µM.

The record behind these values is PMC8497992.
